Data on 6 molecules can be found in article PMC13286378, “The SPN-4 Rbfox RNA-binding protein selects maternal mRNAs for CCR4-NOT-dependent clearance in early Caenorhabditis elegans embryos”.

T1: SPN-4 RRM (3xFLAG::SPN-4 RRM::6xHis) (Caenorhabditis elegans, UniProt G5EF02 1-200)
T1 sequence: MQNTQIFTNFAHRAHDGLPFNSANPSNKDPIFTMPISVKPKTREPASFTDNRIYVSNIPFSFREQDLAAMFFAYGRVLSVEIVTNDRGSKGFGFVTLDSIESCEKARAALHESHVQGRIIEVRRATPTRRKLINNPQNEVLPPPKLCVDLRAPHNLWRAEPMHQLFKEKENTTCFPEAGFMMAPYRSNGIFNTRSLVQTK

B1: lin-41(995-1054) (ssRNA)
RNA: GUGCCCUAGCGCUAAAUAUUGUUUUAUUUUAAUGCAUGCUUCCUGCACGCCCCUCCCCCU

The first data set concerns the target T1, SPN-4 RRM (3xFLAG::SPN-4 RRM::6xHis). Description: EMSA; 10 mM Tris-HCl pH 7.5, 150 mM NaCl, 0.001% NP-40, 10% glycerol, 0.01 mg/ml tRNA, 0.025% Tween-20; 32 nM RNA, 50 nM-2.9 uM protein; 15 min, room temperature; 8%. The following applies: protein: recombinant; tags: N-terminal 3xFLAG (MBP removed by TEV), C-terminal 6xHis; label: 5' Cy5.
Turning to UUAAUGCAUGCUUCCUACAAACCCC (ssRNA) [lin-41(1023-1047) motif 1], the Kd stood at 230 ± 8.1 nM. On the same count and under the same terms, for UUAAUGCAUGCUUCCUGCACGCCCC (ssRNA) [lin-41(1023-1047)] the value was 285 ± 29.4 nM; for UUAAUACAAACUUCCUGCACGCCCC (ssRNA) [lin-41(1023-1047) motif 2], 1640 ± 146 nM. B1: the Kd amounted to 308 ± 17.9 nM. Still for that read-out and setting: for AUUAGUAUUAUUAUUAUUGCAUGCUCUUACCUCAUCUCUC (ssRNA) [chs-1(40-79)] the value was 174 ± 13.5 nM.

Another data set shares this target. Put plainly: EMSA; did not bind specifically; 10 mM Tris-HCl pH 7.5, 150 mM NaCl, 0.001% NP-40, 10% glycerol, 0.01 mg/ml tRNA, 0.025% Tween-20; 32 nM RNA, 50 nM-2.9 uM protein; 15 min, room temperature; 8%. The following applies: protein: recombinant; tags: N-terminal 3xFLAG (MBP removed by TEV), C-terminal 6xHis; label: 5' Cy5.
For AUUAGUAUUAUUAUUAUUACAAACUCUUACCUCAUCUCUC (ssRNA) [chs-1(40-79) Rbfox mutant control], the binding result is on record as “no binding”.
